Laboratory results published in US20230106715A1 (BIOSION, published 2023).

T1: recombinant human Siglec15-his protein (human, UniProt Q6ZMC9 20-263)
T1 construct: In house made; Biotin-labeled in the capture ELISA
T1 sequence: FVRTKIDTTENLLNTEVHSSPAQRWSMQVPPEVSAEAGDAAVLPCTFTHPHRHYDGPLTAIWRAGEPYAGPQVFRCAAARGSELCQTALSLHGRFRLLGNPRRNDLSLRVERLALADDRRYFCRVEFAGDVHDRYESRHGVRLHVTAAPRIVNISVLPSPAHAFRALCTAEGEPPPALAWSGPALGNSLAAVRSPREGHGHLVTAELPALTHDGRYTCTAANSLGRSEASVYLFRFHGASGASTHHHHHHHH

T2: cynomolgus monkey Siglec15-his protein (cynomolgus monkey)
T2 construct: In house made; also called Cynomolgus Siglec15-his; cynomolgus Siglec15
T2 chain: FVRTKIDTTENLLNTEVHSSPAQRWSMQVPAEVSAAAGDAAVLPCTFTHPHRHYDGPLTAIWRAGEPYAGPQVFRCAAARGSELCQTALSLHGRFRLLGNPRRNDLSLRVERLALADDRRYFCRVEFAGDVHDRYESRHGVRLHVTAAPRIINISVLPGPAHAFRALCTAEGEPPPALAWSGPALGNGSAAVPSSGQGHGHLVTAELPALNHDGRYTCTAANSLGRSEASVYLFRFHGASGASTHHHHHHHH

T3: human Siglec15 on human-siglec15-2D3-1E1 cells (human, UniProt Q6ZMC9 20-328)
T3 construct: whole, on cells; Transfected HEK-293 cells; also called cell surface human Siglec15
T3 sequence (looked up): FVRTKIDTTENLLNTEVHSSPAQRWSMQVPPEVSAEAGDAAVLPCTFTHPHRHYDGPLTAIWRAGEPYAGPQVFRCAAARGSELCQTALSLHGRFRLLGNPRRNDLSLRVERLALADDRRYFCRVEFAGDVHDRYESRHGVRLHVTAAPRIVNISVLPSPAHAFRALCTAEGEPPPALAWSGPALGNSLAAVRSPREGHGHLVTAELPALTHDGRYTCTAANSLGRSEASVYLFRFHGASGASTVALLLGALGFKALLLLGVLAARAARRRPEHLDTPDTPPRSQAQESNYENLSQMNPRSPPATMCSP


Tests used:
[1] = target: T1, recombinant human Siglec15-his protein; assay: SPR Biacore T200, antibody captured by anti-human IgG, antigen as analyte, 1:1 fit
Experimental: (§1) Briefly, goat anti-human IgG (GE healthcare, Cat #BR100839, Human Antibody Capture Kit) was covalently linked to a CM5 chip (carboxy methyl dextran coated chip, GE healthcare, Cat #BR-1005-30) via primary amines, using a standard amine coupling kit provided by Biacore (GE healthcare, Pittsburgh, Pa., USA). Un-reacted moieties on the biosensor surface were blocked with ethanolamine. Then, purified anti-Siglec15 antibodies of the disclosure at the concentration of 13.3 nM and an anti-Siglec15 benchmark (ch5G12, also referred to as BM, see U.S. Patent Publication No. 20190202912A1, amino acid sequences of the heavy chain and light chain set forth in SEQ ID NOs: 24 and 25, respectively) at 13.3 nM, were respectively flowed onto the chip at a flow rate of 10 μL/min. Then, serially diluted recombinant human Siglec15-his protein (in house made, amino acid sequence set forth in SEQ ID NO: 20) or cynomolgus monkey Siglec15-his protein (in house made, amino acid sequence set forth in SEQ ID NO: 21), 2-fold serial dilution in HBS-EP⁺ buffer starting at 80 nM, were respectively flown onto the chip at a flow rate of 30 μL/min. The antigen-antibody association kinetics was followed for 2 minutes and the dissociation kinetics was followed for 10 minutes. The association and dissociation curves were fit to a 1:1 Langmuir binding model using BIAcore evaluation software.

[2] = target: T2, cynomolgus monkey Siglec15-his protein; assay: as above
Experimental: as §1

[3] = target: T3, human Siglec15 on …; assay: cell based binding FACS on human-siglec15-2D3-1E1 cells
Experimental: The binding activities of the anti-Siglec15 antibodies to cell surface Siglec15 were tested by flow cytometry (FACS), using in-house prepared human-siglec15-2D3-1E1 cells expressing human Siglec15 (amino acid residues Met1-Pro328 of uniprot #Q6ZMC9) on cell membranes. The human-siglec15-2D3-1E1 cells were prepared by transfecting HEK-293 cells (ATCC #CRL-1573) with pCMV-T-P plasmids inserted with human Siglec15 coding sequence between EcoRI and XbaI sites, following the instruction of lipofectamine 3000 transfection reagent (Thermo Fisher). The human-siglec15-2D3-1E1 cells were harvested from cell culture flasks, washed twice and re-suspended in phosphate buffered saline (PBS) containing 2% v/v Fetal Bovine Serum (FACS buffer). 2×10⁵ cells per well in 96 well-plates were incubated in 100 μL serially diluted anti-Siglec15 antibodies or controls (starting at 66.67 nM, 5-fold serial dilution) in FACS buffer for 40 minutes on ice. […] Following a 40-minute incubation at 4° C. in dark, cells were washed three times and re-suspended in FACS buffer. Fluorescence was measured using a Becton Dickinson FACS Canto II-HTS equipment. Data was analyzed using Graphpad Prism software and EC₅₀ values were reported.

[4] = target: T1, recombinant human Siglec15-his protein; assay: SPR Biacore T200, antibody captured by anti-mouse IgG, antigen as analyte, 1:1 fit
Experimental: Briefly, goat anti-mouse IgG (GE healthcare, Cat #BR100838, Mouse Antibody Capture Kit) was covalently linked to a CM5 chip (carboxy methyl dextran coated chip from GE healthcare, Cat #BR100530) via primary amines using a standard amine coupling kit (GE healthcare, Pittsburgh, Pa., USA) provided by Biacore. Un-reacted moieties on the biosensor surface were blocked with ethanolamine. The purified mouse anti-Siglec15 antibodies of the disclosure at the concentration of 13.3 nM, were respectively flowed onto the chip at a flow rate of 10 μL/min. Then, serially diluted human Siglec15-his protein (in house made, amino acid sequence set forth in SEQ ID NO: 20), cynomolgus monkey Siglec15-his protein (in house made, amino acid sequence set forth in SEQ ID NO: 21), or mouse Siglec15-his protein (in house made, amino acid sequence set forth in SEQ ID NO: 22), 2-fold dilution in HBS-EP⁺ buffer (provided by Biacore) starting at 80 nM, were flowed onto the chip at a flow rate of 30 μL/min. The antigen-antibody association kinetics was followed for 2 minutes and the dissociation kinetics was followed for 10 minutes. The association and dissociation curves were fit to a 1:1 Langmuir binding model using BIAcore evaluation software.

Binder	Kd [1]	koff [1]	kon [1]	Kd [2]	koff [2]	kon [2]	EC50 [3]	Kd [4]	koff [4]	kon [4]
anti-Siglec15 benchmark (ch5G12) (antibody, human IgG1, kappa, V domains shown, ch5G12 (US 20190202912A1); also called BM; Siglec15-ch5G9) VH: QVQLQQPGAELVKPGASVKMSCKASGYTFTSYWITWVIQRPGQGLEWIGDIYCGSDTMHYNEKFKNKATLTVDTSSSTAYMQLSSLTSEDSAVYYCARWWDYGSSYDYFDYWGQGTTLTVSS VL: DIKMTQSPSSMYASLGERVTITCKASQDINSYLSWFQQKPGKSPKTLIYRANRLVDGVPSRFSGSGSGQDYSLTISSLEYEDMGIYYCLQYDEFPYTFGGGTKLEIKR	0.265 nM	0.00172 s⁻¹	6.51e+06 M⁻¹ s⁻¹	0.448 nM	0.000788 s⁻¹	1.76e+06 M⁻¹ s⁻¹	11.6 nM			
A2A5C7E8 (antibody, V domains shown, Fully human antibody from transgenic mouse hybridoma; also called A2A5C7E8-1) VH: EVQLVQSGAEVKKPGESLRISCKGSGYSFTTYWISWVRQMPGKGLEWMGLIDPSDSYTNYSPSFQGHVTISTDKSISTAYLQWSSLKASDTAMYYCARGGYYGSEEDYWGQGTLVTVSS VL: EIVLTQSPGTLSLSPGERATLSCRASQSVSSSRLAWFQQKSGQAPRLLIFDASSRATGIPDRFSGSGSGTDFTLTISRLEPEDFAVYYCQQYGSSPRTFGQGTKVEFK	0.041 nM	9.98e-05 s⁻¹	2.43e+06 M⁻¹ s⁻¹	0.0681 nM	8.49e-05 s⁻¹	1.25e+06 M⁻¹ s⁻¹				
B2D7H7A3C1 (antibody, V domains shown, Mouse monoclonal antibody from hybridoma; also called mouse B2D7H7A3C1) VH: QVQLQQSGAELVRPGTSVQMSCKAAGYTFTNYWIGWVKQRPGHGLEWVGDIHPGINYTNNNEKFRGKATLTADTSSNTAYMQLRGLTSDDSAIYYCARVDYDYDGSYIMDYWGQGTSVTVSS VL: QIVLSQSPALLSASPGEKVTMTCRASSSVSYMYWYQQKPGSSPKPWIYATSNLTSGVPARFSGSGSGTSYSLTISRVEAEDAATYFCQQWNSKPWTFGGGSKLEIR							0.998 nM	0.0352 nM	5.46e-05 s⁻¹	1.55e+06 M⁻¹ s⁻¹
B2G12H3E8 (antibody, V domains shown, Mouse monoclonal antibody from hybridoma; also called mouse B2G12H3E8) VH: QVQLKQSGAELVRPGTSVQMSCKAVGYTFTNYWIGWVKQRPGHGLEWVGDIHPGINYTNNNEKFRGKATLTADTSSSTAYMQLRGLTSDDSAIYYCARVDYDYDGSYIMDYWGQGTSVTVSS VL: QIVLSQSPALLSASPGEKVTMTCRASSSVSYMYWYQQKPGSSPKPWIYATSNLTSGVPARFSGSGSGTSYSLTISRVEAEDAATYFCQQWNSKPWTFGGGSKLEIR							1.17 nM	0.00858 nM	1.76e-05 s⁻¹	2.05e+06 M⁻¹ s⁻¹
B2H2H1H7 (antibody, V domains shown, Mouse monoclonal antibody from hybridoma; also called mouse B2H2H1H7; B2H2H1A7) VH: QVQLQQSGAELVRPGTSVQMSCKAAGYTFTNYWIGWVKQRPGHGLEWVGDIHPGINYTNNNEKFRGKATLTADTSSSTAYMQLRGLTSDDSAIYYCARVDYDYDGSYIMDYWGQGTSVTVSS VL: QIILSQSPALLSASPGEKVTMTCRASSSVSYMYWYQQKPGSSPKPWIYATSNLTSGVPARFSGSGSGTSYSLTISRVEAEDAATYFCQQWNSKPWTFGGGSRLEIR							1.91 nM	0.016 nM	3.18e-05 s⁻¹	1.99e+06 M⁻¹ s⁻¹
A1E10G7H9 (antibody, V domains shown, Fully human antibody from transgenic mouse hybridoma) VH: QVQLQESGPGLVKPSGTLSLTCAVSGGSISSSNWWHWVRQPPGKGLEWIGEIYHSGNTNYKPSLKSRVTISVDKSKNQFSLKLSSVTAADTAVYYCARDEGNGWSNAFDIWGQGTMVTVSS VL: ENVLTQSPGTLSLSPGERVTLSCRASQSVSSSYLAWYQQKPGQAPRFLIYGASGGATGIPDRFSGSGSGTDFTLTISRLEPEDFAVYYCQQYGSSPITFGQGTRLEIK	0.0139 nM	0.0001 s⁻¹	7.18e+06 M⁻¹ s⁻¹	0.0269 nM	0.000104 s⁻¹	3.89e+06 M⁻¹ s⁻¹				
